Source: US20250145708A1 (GOOD T CELLS, published 2025)

How the values were obtained:
Assay in all cases: Lrig-1 peptide microarray (15-mers, 14 aa overlap), H6 at 1, 10 and 100 µg/ml
[1] = biological target: T1, Lrig-1 epitope peptide SEQ ID NO: 24
T1 peptide: RQVTFGHEGRY
Experimental: (§1) Pre-staining of a Lrig-1 peptide microarray copy using secondary and control antibodies in incubation buffer was performed to identify whether they can interact with antigen-derived peptides that can interfere with the main assays. Subsequent incubation of other Lrig-1 peptide microarray copies with the H6 monoclonal antibody of Production Example 8 (1 μg/ml, 10 μg/ml, and 100 μg/ml) in incubation buffer was followed by staining with secondary and control antibodies. Read-out was performed at a scanning intensity of 7/7 (red/green) using the LI-COR Odyssey Imaging System. Quantification of spot intensities and peptide annotation were based on the 16-bit gray scale tiff files. Microarray image analysis was done with PepSlide® Analyzer.

[2] = biological target: T2, Lrig-1 epitope peptide SEQ ID NO: 18
T2 construct: it was not itself a separately tested peptide
T2 peptide: WTRSLNLSYNKL
Experimental: as §1

[3] = biological target: T3, Lrig-1 epitope peptide SEQ ID NO: 21
T3 peptide: DLNRNRIRLIEGLTF
Experimental: as §1

[4] = biological target: T4, Lrig-1 epitope peptide SEQ ID NO: 27
T4 peptide: RRMHVMPDDDVFF
Experimental: as §1

[5] = biological target: T5, Lrig-1 epitope peptide SEQ ID NO: 23
T5 peptide: WLPPWLIGRMLQAF
Experimental: as §1

[6] = biological target: T6, Lrig-1 epitope peptide SEQ ID NO: 26
T6 peptide: RLTVNVLPSFTKTPH
Experimental: as §1

[7] = biological target: T7, Lrig-1 epitope peptide SEQ ID NO: 22
T7 peptide: NSIARIHRKGW
Experimental: as §1

[8] = biological target: T8, Lrig-1 epitope peptide SEQ ID NO: 20
T8 peptide: RLTQLDLNRNRIR
Experimental: as §1

[9] = biological target: T9, Lrig-1 epitope peptide SEQ ID NO: 25
T9 peptide: FGHEGRYQCVITNHF
Experimental: as §1

[10] = biological target: T10, Lrig-1 epitope peptide SEQ ID NO: 28
T10 peptide: FFITDVKIDDAGVYS
Experimental: as §1

[11] = biological target: T11, Lrig-1 epitope peptide SEQ ID NO: 19
T11 peptide: TEVRNTCFPHGPPI
Experimental: as §1

Measured: binding result

B1: H6 clone monoclonal antibody (Production Example 8) (antibody, mouse IgG2a, V domains shown)
VH: EVQLLESGGGLVQPGGSLRLSCAASGFTFSNYAMSWVRQAPGKGLEWVSVISHGGGSTYYADSVKGRFTISRDNSKNTLYLQMNSLRAEDTAVYYCARVISNCHLGVCYYSNGMDVWGQGTLVTVSS
VL: QSVLTQPPSASGTPGQRVTISCSGSSSNIGNNDVYWYQQLPGTAPKLLIYSDSQRPSGVPDRFSGSKSGTSASLAISGLRSEDEADYYCGTWDYSLSGYVFGGGTKLTVLR
notes: also called H6 monoclonal antibody
binds: [1] | [2] | [3] | [4] | [5] | [6] | [7] | [8] | [9] | [10] | [11]
